Sequences and labels used below:
B1: unnamed (protein)
chain: MKPENKLPVLDLISAEMKTVVNTLQPDLPPWPATGTIAEQRQYYTLERRFWNAGAPEMATRAYMVPTKYGQVETRLFCPQPDSPATLFYLHGGGFILGNLDTHDRIMRLLASYSQCTVIGIDYTLSPEARFPQAIEEIVAACCYFHQQAEDYQINMSRIGFAGDSAGAMLALASALWLRDKQIDCGKVAGVLLWYGLYGLRDSVTRRLLGGVWDGLTQQDLQMYEEAYLSNDADRESPYYCLFNNDLTREVPPCFIAGAEFDPLLDDSRLLYQTLAAHQQPCEFKLYPGTLHAFLHYSRMMKTADEALRDGAQFFTAQL
B2: unnamed (protein)
chain: B1 chain with D262A
B3: unnamed (protein)
chain: B1 chain with D266A
B4: unnamed (protein)
chain: B1 chain with G167A
B5: unnamed (protein)
chain: B1 chain with H103N
B6: unnamed (protein)
chain: B1 chain with D164A
B7: unnamed (protein)
chain: B1 chain with G163A
B8: unnamed (protein)
chain: B1 chain with E128Q

Numbering of substitutions follows the chain as printed.

Substrate in this data set: p-NP-C4
Particulars: pH 7.1; 25 °C.
As a reminder, the Km is the concentration of substrate that gives half-maximal velocity. By kcat is commonly meant the number of substrate molecules converted per active site and unit of time at saturation. In general, kcat/Km refers to the second-order rate constant that governs catalysis at low substrate concentration. For B1, the Km came to 500 µM, the kcat came to 30.9 s⁻¹ and the kcat/Km came out at 61800 M⁻¹ s⁻¹.
The matching figures for B2: 400 µM, 0.034 s⁻¹ and 85 M⁻¹ s⁻¹.
The corresponding values for B3 are 500 µM, 3.4 s⁻¹ and 6800 M⁻¹ s⁻¹.
The matching figures for B4: 2000 µM, 49.4 s⁻¹ and 24700 M⁻¹ s⁻¹.
In the case of B5, the Michaelis constant (Km) was 250 µM, the turnover number (kcat) worked out at 12.1 s⁻¹ and the catalytic efficiency (kcat/Km) came to 48400 M⁻¹ s⁻¹.
The corresponding values for B6 are 1000 µM, 0.007 s⁻¹ and 7 M⁻¹ s⁻¹.
The corresponding values for B7 are 500 µM, 2.9 s⁻¹ and 5800 M⁻¹ s⁻¹.
The matching figures for B8: 350 µM, 7.4 s⁻¹ and 21100 M⁻¹ s⁻¹.

Source of the values: the PETadex activity labels (doi:10.1016/s0014-5793(99)00813-3).
